In patent publication US20260125454A1 (SHANGHAI JUNSHI BIOSCIENCES, published 2026):

Target: T1, Biotin-huCGRPaSA (human, not fully specified; biotin (position not given))
T1 construct: exact construct ('aSA') not explained; also called Biotin CGRPaSA; full-length (1-37) CGRP
T1 peptide: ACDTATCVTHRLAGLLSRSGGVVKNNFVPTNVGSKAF
Test: ELISA, supernatant; relative to chimeric C245
How it was run: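 Antibodies, including reference chimeric C245, titrated 2.5-fold from 1000 ng/mL and incubated 60 min at 37°C on wells coated with 1.0 μg/mL biotin-CGRPaSA and blocked with 2% BSA. Bound IgG detected with HRP anti-human Fc antibody and TMB, acid-stopped, absorbance 450/620 nm.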

| Binder | Relative binding activity, % |
| --- | --- |
| hu4 (antibody, V domains shown, 1B2 HC-1/1A2 LC2-4) VH: QVQLVQSGAEVKKPGASVKVSCKASGYTFTDYNMHWVRQAPGQGLEWMGYIFPYNGVAVYNRKFRSRVTLTIDTSSSTAYMELRSLRSDDTAVYYCAREGLGGYWGQGTLVTVSS VL: DIQLTQSPSFLSASVGDRVTITCKASQNIDYDGYAYLNWYQQKPGKAPKVLIYSVFNLESGVPSRFSGSGSGTEFTLTISSLQPEDFATYYCQQSNEFPYTFGQGTKLEIK | 58% |
| hu121 (antibody, V domains shown, 2B8 HC1-2/1A2 LC2-4) VH: QVQLVQSGAEVKKPGASVKVSCKASGYTFTDYNMHWVRQAPGQGLEWMGNIYPYNGGTVYNQKFNNRVTLTVDTSSSTAYMELRSLRSDDTAVYYCAREGLGGYWGQGTLVTVSS VL: DIQLTQSPSFLSASVGDRVTITCKASQNIDYDGYAYLNWYQQKPGKAPKVLIYSVFNLESGVPSRFSGSGSGTEFTLTISSLQPEDFATYYCQQSNEFPYTFGQGTKLEIK | 49% |
| hu199 (antibody, V domains shown, 3H10 HC-1/1A2 LC2-4) VH: QVQLVQSGAEVKKPGASVKVSCKASGYTFTDYNMHWVRQAPGQGLEWMGYIYPYNGHTVYNQKFRNRVTMTVDTSSSTAYMELRSLRSDDTAVYYCAKEGLGGYWGQGTLVTVSS VL: DIQLTQSPSFLSASVGDRVTITCKASQNIDYDGYAYLNWYQQKPGKAPKVLIYSVFNLESGVPSRFSGSGSGTEFTLTISSLQPEDFATYYCQQSNEFPYTFGQGTKLEIK | 41% |
| hu143 (antibody, V domains shown, 2B8 HC1-3/3H10 LC2-2) VH: QVQLVQSGAEVKKPGASVKVSCKASGYTFTDYNMHWVRQAPGQGLEWMGNIYPYNAGTVYNQKFNNRVTLTVDTSSSTAYMELSRLRSDDTAVYYCAREGLGGYWGQGTLVTVSS VL: DIQLTQSPSSLSASVGDRVTITCKASQNIDYGGYSYMNWYQQKPGKAPKVLIYSVFNLESGVPSRFSGSGSGTDFTLTISSLQPEDFATYYCQQSNEAPYTFGQGTKLEIK | 41% |
| hu17 (antibody, V domains shown, 1B2 HC-2/1A2 LC2-4) VH: QVQLVQSGAEVKKPGASVKVSCKASGYTFTDYNMHWVRQAPGQRLEWMGYIFPYNGVAVYNRKFRSRVTLTVDTSSSTAYMELSSLRSEDTAVYYCAREGLGGYWGQGTLVTVSS VL: DIQLTQSPSFLSASVGDRVTITCKASQNIDYDGYAYLNWYQQKPGKAPKVLIYSVFNLESGVPSRFSGSGSGTEFTLTISSLQPEDFATYYCQQSNEFPYTFGQGTKLEIK | 35% |
| hu186 (antibody, V domains shown, 3E5 HC-4/1A2 LC2-4) VH: QVQLVQSGAEVKKPGASVKVSCKTSGYTFTDYNMHWVRQAPGQRLEWMGYISPYNAGTAYNQKFKFRVTLTVDTSSSTAYMELSSLRSEDTAVYYCAREGLGGYWGQGTLVTVSS VL: DIQLTQSPSFLSASVGDRVTITCKASQNIDYDGYAYLNWYQQKPGKAPKVLIYSVFNLESGVPSRFSGSGSGTEFTLTISSLQPEDFATYYCQQSNEFPYTFGQGTKLEIK | 53% |
| hu56 (antibody, V domains shown, 1F5 HC-3/1A2 LC2-4) VH: QVQLVQSGAEVKKPGASVKVSCKASGYTFTDFNMHWVRQAPGQGLEWMGYIYPYNGDVVYNQNFTNRVTLTVDTSSSTAYMELRSLRSDDTAVYYCAREGLGGYWGQGTLVTVSS VL: DIQLTQSPSFLSASVGDRVTITCKASQNIDYDGYAYLNWYQQKPGKAPKVLIYSVFNLESGVPSRFSGSGSGTEFTLTISSLQPEDFATYYCQQSNEFPYTFGQGTKLEIK | 53% |
| hu43 (antibody, V domains shown, 1F5 HC-2/1A2 LC2-4) VH: QVQLVQSGAEVKKPGASVKVSCKASGYTFTDFNMHWVRQAPGQRLEWMGYIYPYNGDVVYNQNFTNRVTLTVDTSSSTAYMELSSLRSEDTAVYYCAREGLGGYWGQGTLVTVSS VL: DIQLTQSPSFLSASVGDRVTITCKASQNIDYDGYAYLNWYQQKPGKAPKVLIYSVFNLESGVPSRFSGSGSGTEFTLTISSLQPEDFATYYCQQSNEFPYTFGQGTKLEIK | 44% |
| hu95 (antibody, V domains shown, 2A2 HC-1/1A2 LC2-4) VH: QVQLVQSGAEVKKPGASVKVSCKASGYTFTDYNMHWVRQAPGQRLEWMGYVYPYNGGSAYNQKFKSRVTLTVDTSSSTAYMELSSLRSEDTAVYYCAREGLGGYWGQGTLVTVSS VL: DIQLTQSPSFLSASVGDRVTITCKASQNIDYDGYAYLNWYQQKPGKAPKVLIYSVFNLESGVPSRFSGSGSGTEFTLTISSLQPEDFATYYCQQSNEFPYTFGQGTKLEIK | 43% |
| hu108 (antibody, V domains shown, 2B8 HC1-1/1A2 LC2-4) VH: QVQLVQSGAEVKKPGASVKVSCKASGYTFTDYNMHWVRQAPGQGLEWMGNIYPYNGGTVYNQKFNNRVTLTVDTSSSTAYMELSRLRSDDTAVYYCAREGLGGYWGQGTLVTVSS VL: DIQLTQSPSFLSASVGDRVTITCKASQNIDYDGYAYLNWYQQKPGKAPKVLIYSVFNLESGVPSRFSGSGSGTEFTLTISSLQPEDFATYYCQQSNEFPYTFGQGTKLEIK | 70% |
| hu65 (antibody, V domains shown, 1F5 HC-3/3H10 LC2-2) VH: QVQLVQSGAEVKKPGASVKVSCKASGYTFTDFNMHWVRQAPGQGLEWMGYIYPYNGDVVYNQNFTNRVTLTVDTSSSTAYMELRSLRSDDTAVYYCAREGLGGYWGQGTLVTVSS VL: DIQLTQSPSSLSASVGDRVTITCKASQNIDYGGYSYMNWYQQKPGKAPKVLIYSVFNLESGVPSRFSGSGSGTDFTLTISSLQPEDFATYYCQQSNEAPYTFGQGTKLEIK | 20% |
| hu130 (antibody, V domains shown, 2B8 HC1-2/3H10 LC2-2) VH: QVQLVQSGAEVKKPGASVKVSCKASGYTFTDYNMHWVRQAPGQGLEWMGNIYPYNGGTVYNQKFNNRVTLTVDTSSSTAYMELRSLRSDDTAVYYCAREGLGGYWGQGTLVTVSS VL: DIQLTQSPSSLSASVGDRVTITCKASQNIDYGGYSYMNWYQQKPGKAPKVLIYSVFNLESGVPSRFSGSGSGTDFTLTISSLQPEDFATYYCQQSNEAPYTFGQGTKLEIK | 53% |
| hu117 (antibody, V domains shown, 2B8 HC1-1/3H10 LC2-2) VH: QVQLVQSGAEVKKPGASVKVSCKASGYTFTDYNMHWVRQAPGQGLEWMGNIYPYNGGTVYNQKFNNRVTLTVDTSSSTAYMELSRLRSDDTAVYYCAREGLGGYWGQGTLVTVSS VL: DIQLTQSPSSLSASVGDRVTITCKASQNIDYGGYSYMNWYQQKPGKAPKVLIYSVFNLESGVPSRFSGSGSGTDFTLTISSLQPEDFATYYCQQSNEAPYTFGQGTKLEIK | 36% |
| hu30 (antibody, V domains shown, 1F5 HC-1/1A2 LC2-4) VH: QVQLVQSGAEVKKPGASVKVSCKASGYTFIDFNMHWVRQAPGQRLEWMGYIYPYNGDVVYNQNFTNRVTLTVDTSSSTAYMELSSLRSEDTAVYYCAREGLGGYWGQGTLVTVSS VL: DIQLTQSPSFLSASVGDRVTITCKASQNIDYDGYAYLNWYQQKPGKAPKVLIYSVFNLESGVPSRFSGSGSGTEFTLTISSLQPEDFATYYCQQSNEFPYTFGQGTKLEIK | 47% |
| hu208 (antibody, V domains shown, 3H10 HC-1/3H10 LC2-2) VH: QVQLVQSGAEVKKPGASVKVSCKASGYTFTDYNMHWVRQAPGQGLEWMGYIYPYNGHTVYNQKFRNRVTMTVDTSSSTAYMELRSLRSDDTAVYYCAKEGLGGYWGQGTLVTVSS VL: DIQLTQSPSSLSASVGDRVTITCKASQNIDYGGYSYMNWYQQKPGKAPKVLIYSVFNLESGVPSRFSGSGSGTDFTLTISSLQPEDFATYYCQQSNEAPYTFGQGTKLEIK | 15% |
| hu13 (antibody, V domains shown, 1B2 HC-1/3H10 LC2-2) VH: QVQLVQSGAEVKKPGASVKVSCKASGYTFTDYNMHWVRQAPGQGLEWMGYIFPYNGVAVYNRKFRSRVTLTIDTSSSTAYMELRSLRSDDTAVYYCAREGLGGYWGQGTLVTVSS VL: DIQLTQSPSSLSASVGDRVTITCKASQNIDYGGYSYMNWYQQKPGKAPKVLIYSVFNLESGVPSRFSGSGSGTDFTLTISSLQPEDFATYYCQQSNEAPYTFGQGTKLEIK | 27% |
| hu134 (antibody, V domains shown, 2B8 HC1-3/1A2 LC2-4) VH: QVQLVQSGAEVKKPGASVKVSCKASGYTFTDYNMHWVRQAPGQGLEWMGNIYPYNAGTVYNQKFNNRVTLTVDTSSSTAYMELSRLRSDDTAVYYCAREGLGGYWGQGTLVTVSS VL: DIQLTQSPSFLSASVGDRVTITCKASQNIDYDGYAYLNWYQQKPGKAPKVLIYSVFNLESGVPSRFSGSGSGTEFTLTISSLQPEDFATYYCQQSNEFPYTFGQGTKLEIK | 86% |
| hu147 (antibody, V domains shown, 3E5 HC-1/1A2 LC2-4) VH: QVQLVQSGAEVKKPGASVKVSCKTSGYTFTDYNMHWVRQAPGQRLEWMGYISPYNGGTAYNQKFKFRVTLTVDTSSSTAYMELSSLRSEDTAVYYCAREGLGGYWGQGTLVTVSS VL: DIQLTQSPSFLSASVGDRVTITCKASQNIDYDGYAYLNWYQQKPGKAPKVLIYSVFNLESGVPSRFSGSGSGTEFTLTISSLQPEDFATYYCQQSNEFPYTFGQGTKLEIK | 111% |
| hu82 (antibody, V domains shown, 1F5 HC-5/1A2 LC2-4) VH: QVQLVQSGAEVKKPGASVKVSCKASGYTFIDFNMHWVRQAPGQRLEWMGYIYPYNADVVYNQDFTNRVTLTVDTSSSTAYMELSSLRSEDTAVYYCAREGLGGYWGQGTLVTVSS VL: DIQLTQSPSFLSASVGDRVTITCKASQNIDYDGYAYLNWYQQKPGKAPKVLIYSVFNLESGVPSRFSGSGSGTEFTLTISSLQPEDFATYYCQQSNEFPYTFGQGTKLEIK | 97% |
| hu173 (antibody, V domains shown, 3E5 HC-3/1A2 LC2-4) VH: QVQLVQSGAEVKKPGASVKVSCKASGYTFTDYNMHWVRQAPGQGLEWMGYISPYNGGTAYNQKFKFRVTLTVDTSSSTAYMELSRLRSDDTVVYYCAREGLGGYWGQGTLVTVSS VL: DIQLTQSPSFLSASVGDRVTITCKASQNIDYDGYAYLNWYQQKPGKAPKVLIYSVFNLESGVPSRFSGSGSGTEFTLTISSLQPEDFATYYCQQSNEFPYTFGQGTKLEIK | 92% |
| hu160 (antibody, V domains shown, 3E5 HC-2/1A2 LC2-4) VH: QVQLVQSGAEVKKPGASVKVSCKASGYTFTDYNMHWVRQAPGQRLEWMGYISPYNGGTAYNQKFKFRVTLTVDTSSSTAYMELSSLRSEDTAVYYCAREGLGGYWGQGTLVTVSS VL: DIQLTQSPSFLSASVGDRVTITCKASQNIDYDGYAYLNWYQQKPGKAPKVLIYSVFNLESGVPSRFSGSGSGTEFTLTISSLQPEDFATYYCQQSNEFPYTFGQGTKLEIK | 50% |
